Assay [1] concerns the target T1, EphA2 extracellular domain (ECD) (human, UniProt P29317 24-537). The assay is described as follows: SPR.
The target of assay [2] is T1, EphA2 extracellular domain (ECD). The assay is described as follows: SPR. This is another data set of the same source. In general terms: SPR reads the build-up and loss of mass on a sensor chip optically.

T1 sequence (P29317 24-537): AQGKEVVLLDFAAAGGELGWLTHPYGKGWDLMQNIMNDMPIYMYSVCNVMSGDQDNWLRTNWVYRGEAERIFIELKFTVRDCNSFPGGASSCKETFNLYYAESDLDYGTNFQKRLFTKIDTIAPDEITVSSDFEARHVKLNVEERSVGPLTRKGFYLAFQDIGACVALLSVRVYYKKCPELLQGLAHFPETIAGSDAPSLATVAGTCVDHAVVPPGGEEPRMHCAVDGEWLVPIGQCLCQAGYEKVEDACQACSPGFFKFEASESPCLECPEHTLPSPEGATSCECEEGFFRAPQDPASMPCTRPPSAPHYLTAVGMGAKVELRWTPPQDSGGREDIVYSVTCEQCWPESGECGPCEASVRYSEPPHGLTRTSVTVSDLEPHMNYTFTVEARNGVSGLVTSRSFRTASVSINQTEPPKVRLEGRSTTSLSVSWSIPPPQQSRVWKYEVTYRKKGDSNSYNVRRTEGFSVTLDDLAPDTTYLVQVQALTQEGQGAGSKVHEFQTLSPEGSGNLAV

B1: Fab L1 (Fab, V domains shown)
VH: EVQLVESGGGLVQPGGSLRLSCAASGFTISSSYIHWVRQAPGKGLEWVASISSYYGSTSYADSVKGRFTISADTSKNTAYLQMNSLRAEDTAVYYCARSHYSVWWGWHSVSYYAAFDYWGQGTLVTVSS
VL: DIQMTQSPSSLSASVGDRVTITCRASQSVSSAVAWYQQKPGKAPKLLIYSASSLYSGVPSRFSGSRSGTDFTLTISSLQPEDFATYYCQQGSAPFTFGQGTKVEIK
One may read the Kd as the concentration at which binding is half-saturated. Lower therefore signals tighter binding. A word on the koff: it is the first-order rate constant of dissociation. Lower therefore signals slow dissociation. In assay [1], B1 had a Kd of 440 pM. In assay [2], the koff stood at 7.2e-05 s⁻¹.

B2: Fab F1 (Fab, V domains shown)
VH: EVQLVESGGGLVQPGGSLRLSCAASGFDSGAYLRHWVRQAPGKGLEWVASIYPSYGYTSYADSVKGRFTISADTSKNTAYLQMNSLRAEDTAVYYCARSAASYYGYWHWYHFSPGMDYWGQGTLVTVSS
VL: DIQMTQSPSSLSASVGDRVTITCRASQSVSSAVAWYQQKPGKAPKLLIYSASDLYSGVPSRFSGSRSGTDFTLTISSLQPEDFATYYCQQYVSGGWLITFGQGTKVEIK
On to B2, for which, in assay [1], the Kd amounted to 260 pM. In assay [2], this molecule came in with a koff of 7.8e-05 s⁻¹.

B3: Fab C1 (Fab, V domains shown)
VH: EVQLVESGGGLVQPGGSLRLSCAASGFTIYYSSMHWVRQAPGKGLEWVASISSYYGYTYYADSVKGRFTISADTSKNTAYLQMNSLRAEDTAVYYCARYYAMDYWGQGTLVTVSS
VL: DIQMTQSPSSLSASVGDRVTITCRASQSVSSAVAWYQQKPGKAPKLLIYSASSLYSGVPSRFSGSRSGTDFTLTISSLQPEDFATYYCQQYYGYGGYPITFGQGTKVEIK
Take B3: the affinity in assay [1], expressed as Kd, was 210 pM. In addition, the koff in assay [2] was 0.00019 s⁻¹.

Source of the values: article PMC12102760 (2025).
